# From patent publication US5733790, “CRF binding protein antibodies and assays using same” (The Salk Institute for Biological Studies, dated 1998)
# T1: rat/human corticotropin releasing factor (human and rat (same 41-residue sequence), C-terminal amide (NH2))
# T1 peptide: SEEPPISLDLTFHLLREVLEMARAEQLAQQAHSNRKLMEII
# Target: T1, rat/human corticotropin releasing factor
# Assay: binding assay, method not described
binder,measurement,value
purified human CRF-BP (native 37 kD protein purified from human plasma) (other) YLELREAADYDPFLLFSANLKRELAGEQPYRRALRCLDMLSLQGQFTFTADRPQLHCAAFFISEPEEFITIHYDQVSIDCQGGDFLKVFDGWILKGEKFPSSQDHPLPSAERYIDFCESGLSRRSIRSSQNVAMIFFRVHEPGNGFTLTIKTDPNLFPCNVISQTPNGKFTLVVPHQHRNCSFSIIYPVVIKISDLTLGHVNGLQLKKSSAGCEGIGDFVELLGGTGLDPSKMTPLADLCYPFHGPAQMKVGCDNTVVRMVSSGKHVNRVTFEYRQLEPYELENPNGNSIGEFCLSGL,Kd,100 pM
